The values below come from PMC5100564 (Nucleic Acids Research, 2016).

The test deals with T1, recombinant GST-Scd6 (S. cerevisiae, UniProt P45978 1-349).
T1 sequence (looked up): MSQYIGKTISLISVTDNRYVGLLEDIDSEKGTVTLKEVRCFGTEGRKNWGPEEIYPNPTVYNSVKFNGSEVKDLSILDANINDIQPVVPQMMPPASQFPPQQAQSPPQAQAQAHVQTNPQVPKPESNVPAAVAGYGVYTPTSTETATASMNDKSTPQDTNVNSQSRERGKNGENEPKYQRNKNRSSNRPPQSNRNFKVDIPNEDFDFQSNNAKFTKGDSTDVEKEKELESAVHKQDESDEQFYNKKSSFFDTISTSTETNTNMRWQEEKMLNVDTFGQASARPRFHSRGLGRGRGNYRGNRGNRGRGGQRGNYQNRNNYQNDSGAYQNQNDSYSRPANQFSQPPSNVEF
The test is described as follows: pull-down.

B1: recombinant purified His-Hmt1 (enzyme, S. cerevisiae, UniProt P38074 1-348, looked up)
chain: MSKTAVKDSATEKTKLSESEQHYFNSYDHYGIHEEMLQDTVRTLSYRNAIIQNKDLFKDKIVLDVGCGTGILSMFAAKHGAKHVIGVDMSSIIEMAKELVELNGFSDKITLLRGKLEDVHLPFPKVDIIISEWMGYFLLYESMMDTVLYARDHYLVEGGLIFPDKCSIHLAGLEDSQYKDEKLNYWQDVYGFDYSPFVPLVLHEPIVDTVERNNVNTTSDKLIEFDLNTVKISDLAFKSNFKLTAKRQDMINGIVTWFDIVFPAPKGKRPVEFSTGPHAPYTHWKQTIFYFPDDLDAETGDTIEGELVCSPNEKNNRDLNIKISYKFESNGIDGNSRSRKNEGSYLMH
Take B1: the binding result was “binds”.
